Experimental data from patent US20260049146A1 (PARAGON THERAPEUTICS, published 2026).
Positions count from the first letter of the chain named. Numbers in names are those of the source. One block for each binder: values may come before it.

Target: T1, Recombinant in-house Human FcRn protein (human, UniProt P55899 24-297; P61769 21-119)
T1 construct: also called HuFcRn; huFcRn
Assay: competition ELISA, huFcRn coated, pH 6.0, competitor biotinylated human IgG1; reference PAL02-0002
Protocol: A competitive binding ELISA assay was used to screen for molecules that prevent IgG from binding to recombinant in-house human FcRn protein at pH 6.0. Candidate therapeutics prevent FcRn from binding IgG Abs in the acidic pH 6.0 endosomal environment. […] IC50 values were calculated using GraphPad Prism 7 software applying a nonlinear regression (curve fit) of a log (antagonist) vs. response—variable slop (four parameters).

IC50 as a ratio to Efgartigimod: ~0.5 ratio
B1: Construct 1 PAL02-0195 (IgG1 Fc_M252Y/S254T/T256E/M428L/H433K/N434F) (other)
chain: DKTHTCPPCPAPELLGGPSVFLFPPKPKDTLYITREPEVTCVVVDVSHEDPEVKFNWYVDGVEVHNAKTKPREEQYNSTYRVVSVLTVLHQDWLNGKEYKCKVSNKALPAPIEKTISKAKGQPREPQVYTLPPSRDELTKNQVSLTCLVKGFYPSDIAVEWESNGQPENNYKTTPPVLDSDGSFFLYSKLTVDKSRWQQGNVFSCSVLHEALKFHYTQKSLSLSPG
notes: Fc fragment variant

IC50 as a ratio to Efgartigimod: ~0.5 ratio
B3: Construct 5 PAL02-0200 (IgG1 Fc_M252Y/S254T/T256E/H433R/N434Y) (other)
chain: B1 chain with L208M, K213R, F214Y
notes: Fc fragment variant

Second part, the binder before the results:

B2: Construct 3 PAL02-0197 (IgG1 Fc_M252Y/S254T/T256E/H433K/N434Y) (other)
chain: B1 chain with L208M, F214Y
notes: Fc fragment variant
IC50 as a ratio to Efgartigimod: ~0.5 ratio
fold lower IC50 than Efgartigimod: 3.5 fold

B4: Construct 4 PAL02-0198 (IgG1 Fc_M252Y/S254T/T256E/M428L/N434F) (other)
chain: B1 chain with K213H
notes: Fc fragment variant
IC50 as a ratio to Efgartigimod: ~0.5 ratio

B5: Construct 6 PAL02-0202 (IgG1 Fc_M252Y/S254T/T256E/H433R/N434F) (other)
chain: B1 chain with L208M, K213R
notes: Fc fragment variant
IC50 as a ratio to Efgartigimod: ~0.5 ratio
